We go through one molecule from US20100015126A1, “Methods of Binding of Cross-Beta Structures By Chaperones” (priority 2006, published 2010).

For the experiment, the target named is T1, human BiP (Homo sapiens, UniProt P11021).
T1 construct: The human BiP gene except the signal peptide encoding region was obtained from Geneart (Germany); linker […]; made in house; host or cells: HEK 293E cells, transient transfection, PABC674 vector; secreted into the medium
Put plainly: ELISA: binding of BiP-FLAG-His to immobilized (misfolded) protein ligands. As to conditions: ligands coated at 5 μg/ml; 6BB peptides and oxLDL 50 μg/ml. The method, then:
Enzyme Linked Immunosorbent Assay for Testing of Chaperone Binding to Misfolded Proteins
Binding of chaperones to immobilized (misfolded) protein ligands was determined using an enzyme linked immuno sorbent assay (ELISA) approach. For this purpose 50 μl/well of potential ligands at indicated concentrations or coat buffer only for control and background measurement purposes, were coated overnight at 4° C. or coated for 1 h at room temperature, with motion, in 50 mM NaHCO3 pH 9.6 (coat buffer). In general, ligands were coated at 5 μg/ml, unless stated otherwise. For example, BiP binding peptides 6BB# and oxLDL were coated at 50 μg/ml. Native haemoglobin (Sigma-Aldrich, H7379), albumin, IgIV Gammagard and ovalbumin controls were prepared from lyophilized stocks. The controls were prepared by dissolving lyophilized proteins at 1 mg/ml in PBS upon resuspending by pipetting, followed by a 30 minutes period at the roller device, at room temperature. The protein solutions were centrifuged for 10 minutes at 16,000*g and diluted in coat buffer. […] After 5 washes with wash buffer followed by two washes with PBS, binding of antibodies was assessed. […] Plates were read at 450 nm. Triplicates were averaged and standard deviations calculated. […] Subsequently, sub-optimal concentrations of chaperones for binding to misfolded protein ligands are determined, and these concentrations are used for inhibition studies. […]

T1 sequence (P11021 19-654): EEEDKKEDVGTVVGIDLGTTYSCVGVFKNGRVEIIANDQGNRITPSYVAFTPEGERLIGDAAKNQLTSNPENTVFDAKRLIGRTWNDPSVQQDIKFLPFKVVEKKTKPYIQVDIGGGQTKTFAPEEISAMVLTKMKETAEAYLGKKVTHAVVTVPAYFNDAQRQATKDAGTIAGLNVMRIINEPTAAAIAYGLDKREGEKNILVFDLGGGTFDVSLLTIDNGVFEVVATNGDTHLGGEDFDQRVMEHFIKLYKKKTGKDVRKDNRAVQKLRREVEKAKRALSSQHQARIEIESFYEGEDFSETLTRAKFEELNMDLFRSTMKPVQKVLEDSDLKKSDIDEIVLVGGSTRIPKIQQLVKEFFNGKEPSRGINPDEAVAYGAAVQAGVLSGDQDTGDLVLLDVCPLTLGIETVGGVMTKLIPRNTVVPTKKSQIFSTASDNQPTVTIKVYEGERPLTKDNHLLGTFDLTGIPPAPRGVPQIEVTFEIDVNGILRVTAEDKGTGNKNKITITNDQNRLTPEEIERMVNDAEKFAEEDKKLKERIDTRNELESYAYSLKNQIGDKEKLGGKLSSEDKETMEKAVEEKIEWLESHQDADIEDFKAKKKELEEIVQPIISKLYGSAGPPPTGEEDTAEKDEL

B1: dOVA standard: heat-denatured chicken ovalbumin (protein)
chain: GSIGAASMEFCFDVFKELKVHHANENIFYCPIAIMSALAMVYLGAKDSTRTQINKVVRFDKLPGFGDSIEAQCGTSVNVHSSLRDILNQITKPNDVYSFSLASRLYAEERYPILPEYLQCVKELYRGGLEPINFQTAADQARELINSWVESQTNGIIRNVLQPSSVDSQTAMVLVNAIVFKGLWEKAFKDEDTQAMPFRVTEQESKPVQMMYQIGLFRVASMASEKMKILELPFASGTMSMLVLLPDEVSGLEQLESIINFEKLTEWTSSNVMEERKIKVYLPRMKMEEKYNLTSVLMAMGITDVFSSSANLSGISSAESLKISQAVHAAHAEINEAGREVVGSAEAGVDAASVSEEFRADHPFLFCIKHIATNAVLFFGRCVSP
B1: the “Binding of concentration series of BiP to coated ligand” value was “has been established”.
